Measured values taken from US10696631B2 (priority 2016, dated 2020).
Where two headings read alike, the source gives them in different places.

Assays:
U87MG xenografts = assay: MicroPET imaging and biodistribution in U87MG xenografts
Source text: (§1) Female athymic nude mice (Harlan Laboratories) were housed in an animal facility under pathogen-free conditions. Tumor model was developed in 5 to 6 weeks old female athymic nude mice by injection of 5×10^6 cells into their right shoulders. The mice underwent small-animal PET studies when the tumor volume reached 300 mm^3 (14-20 days after inoculation), and received ^90Y radionuclide therapy when the tumor volume reached 150 mm^3 (10-14 days after inoculation).
(§2) Blood, muscle, bone, liver, kidneys, spleen, intestine, heart and tumor were collected and wet-weighed. […] Radioactivity was measured in a γ-counter. The results were expressed % ID/g.

[1] = format: in vitro ADME, mouse
Source text: At each time point, an aliquot was taken and loaded on iTLC plate and developed in for RadioTLC measurements.

[2] = mouse
Experimental: The red blood cells were separated from the plasma using centrifugation (3500 rpm for 5 min). […] The extracted soup was taken, filter on 0.45 μm filter and injected into an analytical HPLC using system 1.

U87MG cells = test system: U87MG cells
Experimental: (§3) All the cells were supplemented with 10% fetal bovine serum, 100 IU/mL penicillin, and […] streptomycin. Cells were grown in humidified atmosphere containing 5% CO2 at 37° C.

HT29 cells = assay: Cellular uptake and internalization in HT29 cells; format: cell-based, human
Experimental: as §3

HT29 xenografts = details: mouse, in vivo
Source text: as §1, §2

MDA-MB-435 xenografts = details: mouse, in vivo
Source text: as §1, §2

[3] = human, in vivo
glioblastoma [4] = details: human, in vivo
glioblastoma [5] = assay: PET in a patient with WHO stage IV glioblastoma; details: GBM patient
[6] = PET/CT and dosimetry calculation in healthy volunteers
U87MG tumor [7] = assay: 90Y radiotherapy in U87MG tumor bearing mice; format: in vivo, mouse
Source text: NMEB-RGD was applied to integrin αvβ3 targeted radiotherapy. […] Similar pattern was observed after the second injection.

HT29 tumor = format: in vivo, mouse; details: HT-29 tumor xenografts, 7.4 MBq
Experimental: In order to test the specificity of ^90Y-DMEB-RGD radiotherapy to integrin αvβ3, the efficacy of 7.4 MBq ^90Y-DMEB-RGD in HT29 that expresses lower human integrin levels but has moderate expression of mouse integrin was tested (FIG. 6). […] Injection of HT29 tumor bearing mice with 7.4 MBq ^90Y-DMEB-RGD was compared in the same model to injection of saline (FIG. 18A). […] HT-29 treated and non-treated mice were sacrificed at day 26 post injection due to tumors ulcer.

U87MG tumor [8] = assay: 18F-FDG and 18F-FLT PET imaging after 90Y radiotherapy; format: in vivo, mouse
U87MG tumor [9] = assay: Histopathologic staining after targeted radiotherapy (CD31, Ki-67, TUNEL, H&E); format: in vivo, mouse
Experimental: U87MG tumor samples from Groups A-F were collected and sectioned after the animals were sacrificed. […] After being washed three times with PBS, samples were mounted with DAPI for staining of cell nuclei (Vector). Fluorescence images were acquired with an epifluorescence microscope (200×; Olympus, X81).
Immunofluorescent terminal deoxynucleotidetransferase-mediated biotin-dUTP labeling (TUNEL) analysis was done by use of a commercial available kit (Roche Applied Science). According to the manufacture's specifications, samples were fixed with 10% formalin and permeabilized by incubation with 0.1% Triton for 2 min on ice. After fixation and permeabilization, 50 μL of TUNEL reaction mixture were added on the samples. The slides were then incubated in a humidified atmosphere for 60 min at 37° C. in the dark. After rinsing with PBS and mounting with DAPI (Vector), samples were observed under an epifluorescence microscope using GFP channel.
CD31 staining to evaluate tumor vasculature, Ki-67 staining to evaluate tumor proliferation and TUNEL staining to determine the DNA damage were done for all the six groups (A-F). For groups A, E and F that had large necrotic area, staining was focused on the tumor rim where tumor cells were alive.

[10] = human, intravenous administration, n = 3

Cc1cc(-c2ccc(NC(=O)CN3CCN4CCN(CC3)CC(=O)[O][64Cu][O]C(=O)C4)c(C)c2)ccc1N=Nc1ccc2c(S(=O)(=O)O)cc(S(=O)(=O)O)c(N)c2c1O [64Cu-NEB]
tumor uptake (U87MG xenografts; U87MG xenografts, 24 h p.i., PET): approximately 8 % ID/g
uptake in the tumor (U87MG xenografts; U87MG xenografts, up to 4 h p.i.): 6-7 % ID/g
order of tumor uptake among xenografts (U87MG xenografts; U87MG, HT29 and MDA-MB-435 xenografts): U87MG>HT29>MDA-MB-435
accumulation in the blood compared with the other tracers (U87MG xenografts; all time points): highest accumulation in the blood at all time points

Cc1cc(-c2ccc(NC(=O)[C@@H](CCCCNC(=O)CCN3C(=O)CC(SCC(=O)NCCCC[C@H]4NC(=O)[C@H](Cc5ccccc5)NC(=O)[C@H](CC(=O)O)NC(=O)CNC(=O)[C@H](CCCNC(=N)N)NC4=O)C3=O)NC(=O)CN3CCN(CC(=O)O)CCN(CC(=O)O)CC3)c(C)c2)ccc1/N=N/c1ccc2c(S(=O)(=O)O)cc(S(=O)(=O)O)c(N)c2c1O (some centres unmarked) [64Cu-NMEB-RGD, metal not drawn]
stability in mouse serum (de-metalation) [1]: stable in mouse serum for up to 24 h
stability in the blood in vivo [2]: stable up to 4 h in the blood
radioactivity extraction bound to the blood proteins fraction ([2]; in vivo): Over 90%
cell uptake (U87MG cells; U87MG cells, 4 h): 1.86±0.22 % of total input
cell uptake, effect of albumin in the medium (U87MG cells; all time points): significantly higher in the absence of albumin in the medium
internalization (U87MG cells; time points later than 5 min): most of ^64Cu-NMEB-RGD uptake was internalized
cell uptake (HT29 cells): 0.76±0.03%
tumor accumulation, % ID/g max (U87MG xenografts; U87MG xenografts, 4 and 24 h p.i.): 27-30 % ID/g
tumor uptake (max) higher than uptake of 64Cu-NOTA-c(RGDfk) (U87MG xenografts; mouse, in vivo): 15 times
tumor uptake blocked by (U87MG xenografts; mouse, in vivo): 55-65%
tumor uptake compared with U87MG (HT29 xenografts): significantly lower than U87MG at all time points
tumor uptake compared with U87MG (MDA-MB-435 xenografts): significantly lower than U87MG at all time points
accumulation in normal organs [3]: no undesired accumulation in normal organs
Estimated absorbed dose, Adrenals, Mean ([3]; iv): 0.0319 mSv/MBq
Estimated absorbed dose, Brain, Mean ([3]; iv): 0.0077 mSv/MBq
Estimated absorbed dose, Breasts, Mean ([3]; iv): 0.0241 mSv/MBq
Estimated absorbed dose, Gallbladder Wall, Mean ([3]; iv): 0.0346 mSv/MBq
Estimated absorbed dose, Heart Wall, Mean ([3]; iv): 0.0298 mSv/MBq
Estimated absorbed dose, Liver, Mean ([3]; iv): 0.1012 mSv/MBq
Estimated absorbed dose, Lower Large Intestine Wall, Mean ([3]; iv): 0.0291 mSv/MBq
Estimated absorbed dose, Lungs, Mean ([3]; iv): 0.0200 mSv/MBq
Estimated absorbed dose, Muscle, Mean ([3]; iv): 0.0127 mSv/MBq
Estimated absorbed dose, Osteogenic Cells, Mean ([3]; iv): 0.0528 mSv/MBq
Estimated absorbed dose, Ovaries, Mean ([3]; iv): 0.0294 mSv/MBq
Estimated absorbed dose, Pancreas, Mean ([3]; iv): 0.0647 mSv/MBq
Estimated absorbed dose, Red Marrow, Mean ([3]; iv): 0.0230 mSv/MBq
Estimated absorbed dose, Skin, Mean ([3]; iv): 0.0219 mSv/MBq
Estimated absorbed dose, Small Intestine, Mean ([3]; iv): 0.0545 mSv/MBq
Estimated absorbed dose, Spleen, Mean ([3]; iv): 0.1293 mSv/MBq
Estimated absorbed dose, Stomach Wall, Mean ([3]; iv): 0.0301 mSv/MBq
Estimated absorbed dose, Testes, Mean ([3]; iv): 0.0229 mSv/MBq
Estimated absorbed dose, Thymus, Mean ([3]; iv): 0.0261 mSv/MBq
Estimated absorbed dose, Thyroid, Mean ([3]; iv): 0.0248 mSv/MBq
Estimated absorbed dose, Total Body, Mean ([3]; iv): 0.0299 mSv/MBq
Estimated absorbed dose, Upper Large Intestine Wall, Mean ([3]; iv): 0.0317 mSv/MBq
Estimated absorbed dose, Urinary Bladder Wall, Mean ([3]; iv): 0.0268 mSv/MBq
Estimated absorbed dose, Uterus, Mean ([3]; iv): 0.0334 mSv/MBq
T(max/N), tumor/non-tumor ratio (glioblastoma [4]): 73.4
T(max/N), tumor/non-tumor ratio (glioblastoma [5]; 0.5 h): 8.36
T(mean/N), tumor/non-tumor ratio (glioblastoma [5]; 0.5 h): 4.13
Tumor-SUVmax (glioblastoma [5]; 0.5 h): 1.84
Tumor-SUVmean (glioblastoma [5]; 0.5 h): 0.91
T(max/N), tumor/non-tumor ratio (glioblastoma [5]; 1 h): 9.78
T(mean/N), tumor/non-tumor ratio (glioblastoma [5]; 1 h): 4.96
Tumor-SUVmax (glioblastoma [5]; 1 h): 2.74
Tumor-SUVmean (glioblastoma [5]; 1 h): 1.39
T(max/N), tumor/non-tumor ratio (glioblastoma [5]; 8 h): 25.35
T(mean/N), tumor/non-tumor ratio (glioblastoma [5]; 8 h): 13.05
Tumor-SUVmax (glioblastoma [5]; 8 h): 5.07
Tumor-SUVmean (glioblastoma [5]; 8 h): 2.61
T(max/N), tumor/non-tumor ratio (glioblastoma [5]; 12 h): 32.89
T(mean/N), tumor/non-tumor ratio (glioblastoma [5]; 12 h): 17.21
Tumor-SUVmax (glioblastoma [5]; 12 h): 6.25
Tumor-SUVmean (glioblastoma [5]; 12 h): 3.27
T(max/N), tumor/non-tumor ratio (glioblastoma [5]; 20 h): 63.33
T(mean/N), tumor/non-tumor ratio (glioblastoma [5]; 20 h): 34.5
Tumor-SUVmax (glioblastoma [5]; 20 h): 3.8
Tumor-SUVmean (glioblastoma [5]; 20 h): 2.07
T(max/N), tumor/non-tumor ratio (glioblastoma [5]; 20.5 h): 66.16
T(mean/N), tumor/non-tumor ratio (glioblastoma [5]; 20.5 h): 34.5
Tumor-SUVmax (glioblastoma [5]; 20.5 h): 3.97
Tumor-SUVmean (glioblastoma [5]; 20.5 h): 2.07
T(mean/N), tumor/non-tumor ratio (glioblastoma [5]; 24 h): 40.2
Tumor-SUVmax (glioblastoma [5]; 24 h): 3.67
Tumor-SUVmean (glioblastoma [5]; 24 h): 2.01
effective dose ([6]; healthy volunteers): 0.1166 Rem/mCi
Effective Dose Equivalent, Mean [6, 10]: 0.0454 mSv/MBq
Effective Dose, Mean [6, 10]: 0.0315 mSv/MBq
Estimated absorbed dose, Kidneys, Mean [6, 10]: 0.0994 mSv/MBq
exposure ([6]; subject injected with 8 mCi): 0.933 Rem

Cc1cc(-c2ccc(NC(=O)[C@@H](CCCCNC(=O)CCN3C(=O)CC(SCC(=O)NCCCC[C@H]4NC(=O)[C@H](Cc5ccccc5)NC(=O)[C@H](CC(=O)O)NC(=O)CNC(=O)[C@H](CCCNC(=N)N)NC4=O)C3=O)NC(=O)CN3CCN(CC(=O)O)CCN(CC(=O)O)CCN(CC(=O)O)CC3)c(C)c2)ccc1/N=N/c1ccc2c(S(=O)(=O)O)cc(S(=O)(=O)O)c(N)c2c1O (some centres unmarked) [90Y-DMEB-RGD, metal not drawn]
tumor volume (U87MG tumor [7]; 1.75 MBq, second injection): No effect on the tumor volume
tumor volume (U87MG tumor [7]; 3.7 MBq, second injection): Minor tumor shrink
survival compared with saline and 90Y-DOTA-c(RGDfK) groups (U87MG tumor [7]; 7.4, 3.7 and 1.75 MBq groups): significant differences (p<0.01)
tumor volume compared with saline group (U87MG tumor [7]; 7.4, 3.7 and 1.75 MBq groups, day 6 post treatment): significantly lower (p<0.01)
body weight loss (U87MG tumor [7]; 7.4 MBq, day 2, regained at day 4): 5%
tumor volume (U87MG tumor [7]; 7.4 MBq, first injection): reduction of volume by day 8
tumor volume (U87MG tumor [7]; 7.4 MBq, second injection 14 days post initial treatment): tumors almost disappeared up to 30 days post initial treatment
tumor growth (HT29 tumor): delay of tumor growth
18F-FLT PET, tumor proliferation (U87MG tumor [8]; 5 and 12 days post initial treatment, group B 7.4 MBq): significant less 18F-FLT uptake
18F-FDG PET, tumor metabolism (U87MG tumor [8]; 3 days post-injection): decreased metabolism
18F-FDG PET, tumor metabolism (U87MG tumor [8]; 10 days post-treatment, group B 7.4 MBq): significant decreased metabolism
cell apoptosis (TUNEL staining) (U87MG tumor [9]; group B 7.4 MBq): considerably more cell apoptosis
cell proliferation (Ki-67 staining) (U87MG tumor [9]; group B 7.4 MBq): significantly reduced cell proliferation
tumor vasculature (CD31 staining) (U87MG tumor [9]; group B 7.4 MBq): lesser than that in the other groups
Hematoxylin and eosin staining, tumor necrosis (U87MG tumor [9]; group B, two doses of 7.4 MBq): most of the tumor area in Group B was already necrotic
